Positions of bridges follow the written chain, without caps; N, C: chain ends. Non-standard residues stand in square brackets, D forms with d. No end group written: not given here. βAla = NCCC(=O)O; Sar = CNCC(=O)O
T1: CD23 (FCεRII) on human CD23+ cells (human, UniProt P06734 1-321)
T1 sequence (looked up): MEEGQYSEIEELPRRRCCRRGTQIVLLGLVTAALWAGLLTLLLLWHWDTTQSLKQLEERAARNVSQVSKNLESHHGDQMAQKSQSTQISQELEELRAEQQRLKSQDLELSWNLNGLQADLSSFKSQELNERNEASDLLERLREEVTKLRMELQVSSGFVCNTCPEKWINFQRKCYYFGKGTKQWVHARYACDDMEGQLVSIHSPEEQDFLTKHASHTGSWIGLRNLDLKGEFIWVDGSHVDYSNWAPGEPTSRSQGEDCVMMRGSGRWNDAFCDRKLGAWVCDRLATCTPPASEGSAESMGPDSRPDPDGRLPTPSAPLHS


target: T1, CD23 (FCεRII) on human CD23+ cells; assay: cell-based or functional assay

Row | Molecule | % Inhibition (nitrites; inhibition of iNOS production by activated CD23+ macrophages) | TNF-α in supernatant of CD23+ cells, pNu + CD23-Ab, Experiment 1 | TNF-α in supernatant of CD23+ cells, pNu + CD23-Ab, Experiment 2 | [NO2-], macrophages from synovial fluid of Rheumatoid Arthritis patients, pNu + CD23-Ab, Experiment 1 | [NO2-], macrophages from synovial fluid of Rheumatoid Arthritis patients, pNu + CD23-Ab, Experiment 2
1 | Compound 491 (Ac w n CO2H) (peptide) | 94% | – | – | – | –
2 | Compound 489 (NH2 G[allyl-] N W G[allyl-]) (peptide) | 62% | – | – | – | –
3 | Compound 410 (Ac N W BetaA CO2H) (peptide) | 61% | – | – | – | –
4 | unrelated control peptide (pNu) | – | 162 pg TNF-α/ml | 132 pg TNF-α/ml | 15.2 µM | 14.4 µM
5 | HENWS (cyclic H2T (N-terminus amino group to C-terminus carboxyl group linkage)) [Compound 437] | 56% | – | – | – | –
6 | FHENW[βAla]S [Compound 328] | 26% | – | – | – | –
7 | FHEFWPT [FHEFWPT (p30D)] | 68% | – | – | – | –
8 | FHENWPS [FHENWPS peptide (p30A)] | 74% | – | – | – | –
9 | HENWGS (cyclic H2T (N-terminus amino group to C-terminus carboxyl group linkage)) [Compound 299] | 74% | – | – | – | –
10 | FHEQWPS [P30O (F H E Q W P S)] | 73% | – | – | – | –

Further lines, results first:

Row | % Inhibition (nitrites; inhibition of iNOS production by activated CD23+ macrophages) | TNF-α in supernatant of CD23+ cells, pNu + CD23-Ab, Experiment 1 | TNF-α in supernatant of CD23+ cells, pNu + CD23-Ab, Experiment 2 | [NO2-], macrophages from synovial fluid of Rheumatoid Arthritis patients, pNu + CD23-Ab, Experiment 1 | [NO2-], macrophages from synovial fluid of Rheumatoid Arthritis patients, pNu + CD23-Ab, Experiment 2 | Molecule
11 | 81% | – | – | – | – | Compound 490 (G[allyl-] N W G[allyl-] S) (peptide)
12 | 77% | – | – | – | – | Compound 492 (Ac n w CO2H) (peptide)
13 | 84% | – | – | – | – | Compound 411 (Ac N W CO2H) (peptide)
14 | 78% | – | – | – | – | FHENWP [P30L (F H E N W P)]
15 | 65% | – | – | – | – | FHSQWPN [FHSQWPN (p30E)]
16 | 76% | – | – | – | – | FHENWPT [P30M (F H E N W P T)]
17 | 74% | – | – | – | – | cyclo(HENW[Sar]S) (SMILES CN1CC(=O)N[C@@H](CO)C(=O)N[C@@H](Cc2c[nH]cn2)C(=O)N[C@@H](CCC(=O)O)C(=O)N[C@@H](CC(N)=O)C(=O)N[C@@H](Cc2c[nH]c3ccccc23)C1=O) [Compound 398]
18 | 60% | – | – | – | – | HENAPS [Compound 436]
19 | 69% | – | – | – | – | HENWKS [Compound 333]
20 | 60% | – | – | – | – | HENWES (lactam N-5) [Compound 327]
21 | 55% | – | – | – | – | FHKPWRA [P30G (F H K P W R A)]
22 | 43% | – | – | – | – | FHEAWPS [Compound 331]
23 | 74% | – | – | – | – | HENWPS [P30K (H E N W P S)]

target: T1, CD23 (FCεRII) on human CD23+ cells; assay: inhibition of anti-CD23-FITC mAb binding to CD23+ cells; Activity grade

Row | Molecule | binding result
24 | HENWP-NH2 [Compound 249] | binds
25 | HENWPS-NH2 [Compound 244] | binds
26 | HENWPSG (cyclic H2T (N-terminus amino group to C-terminus carboxyl group linkage)) [Compound 298] | binds
27 | Ac-HENWPS-NH2 [Compound 243] | binds
28 | HQNWPS-NH2 [Compound 400] | binds
29 | HEPWRS [Compound 289] | binds
30 | FAENWPS [Compound 338] | binds
31 | FHENWPA [Compound 349] | binds
32 | HCNWCS (Cys at residues 2 and 5; no disulfide is stated for this compound) [Compound 290] | binds
33 | FH[βAla]NWPS [Compound 340] | binds

Next, values leading:

Row | binding result | Molecule
34 | binds | HNEWPS [Compound 288]
35 | binds | SPWNEHF (Comment 'scrambled'; L-amino acids, reverse order of FHENWPS) [Compound 397 (scrambled)]
36 | binds | RENWPS [Compound 384]
37 | binds | HEQWPS [Compound 364]
38 | binds | HPNWRS [Compound 281]
39 | binds | FHENWAS [Compound 316]
40 | binds | FHANWPS [Compound 337]
41 | binds | F[βAla]ENWPS [Compound 339]

target: T1, CD23 (FCεRII) on human CD23+ cells; assay: cytofluorometry; CD23+ cells pre-incubated with peptide, then CD23-Ab; Experiment 1

Row | % of fluorescence intensity recovered, compared to cells incubated in medium alone | Molecule
42 | 120% | unrelated control peptide (pNu)

target: T1, CD23 (FCεRII) on human CD23+ cells; assay: cytofluorometry; CD23+ cells pre-incubated with peptide, then CD23-Ab; Experiment 2

Row | % of fluorescence intensity recovered, compared to cells incubated in medium alone | Molecule
43 | 88% | unrelated control peptide (pNu)

target: T1, CD23 (FCεRII) on human CD23+ cells; assay: cytofluorometry; CD23+ cells pre-incubated with peptide, then CD23-Ab; Experiment 3

Row | % of fluorescence intensity recovered, compared to cells incubated in medium alone | Molecule
44 | 94% | unrelated control peptide (pNu)

target: T1, CD23 (FCεRII) on human CD23+ cells; assay: cytofluorometry; CD23+ cells pre-incubated with peptide, then IgE/anti-IgE-FITC; Experiment 1

Row | % of fluorescence intensity recovered, compared to cells incubated in medium alone | Molecule
45 | 73% | unrelated control peptide (pNu)

target: T1, CD23 (FCεRII) on human CD23+ cells; assay: cytofluorometry; CD23+ cells pre-incubated with peptide, then IgE/anti-IgE-FITC; Experiment 2

Row | % of fluorescence intensity recovered, compared to cells incubated in medium alone | Molecule
46 | 110% | unrelated control peptide (pNu)
